{
  "source": "patent US20220227882A1",
  "about": "(TRUSTEES OF TUFTS COLLEGE, published 2022)",
  "binders": {"B1": {"name": "ADP13 Fab (Fab, V domains shown)", "VH": "EVQLQQSGPEMVKPGTSVKISCKASGYTFTDYYINWVKQSHGKSLEWIGDISPNIGGATYNPKFKGKAILTVDKSARTAYMELRSLTSEDSAVYCCTRGGSSYPYFYAMDYWGQGTSVTVSS", "VL": "DIVMSQSPSSLAVSVGEKVTMSCKSSQSLLYSSNQKKYLAWYQQKPGQSPKLLIYWASTRESGVPDRFTGSGSGTDFTLTISSVKAEDLAVYYCQQFYSYPYTFGGGTKLEINR"}, "B2": {"name": "ADP2 Fab (Fab, V domains shown)", "VH": "EVKLVESGGGLVQPGGSLSLSCAASGFSFPDYYMSWVRQPPGKALEWLGFIRDSANGYTTEYIASVKGRFTFSRDNSQSILYLQMNALRAEDSATYYCARYSRYYGMDYWGQGTSVTVSS", "VL": "SIVMTQTPKILLVSAGDRVTITCKASQTVNYDVAWYQQKPGQSPKPVIYFASNRYTGVPDRFTGSGFGTDFTFTISTVQAEDLAVYFCQQDYSAPWTFGGGTKLEIK"}},
  "key": {"R482A [1]": {"biological_target": "T1, R482A (Homo sapiens, UniProt P78325)", "T1 construct": "expressed on HEK293 cells; also called human ADAM8 point mutant R482A", "T1 sequence (ADAM8, looked up)": "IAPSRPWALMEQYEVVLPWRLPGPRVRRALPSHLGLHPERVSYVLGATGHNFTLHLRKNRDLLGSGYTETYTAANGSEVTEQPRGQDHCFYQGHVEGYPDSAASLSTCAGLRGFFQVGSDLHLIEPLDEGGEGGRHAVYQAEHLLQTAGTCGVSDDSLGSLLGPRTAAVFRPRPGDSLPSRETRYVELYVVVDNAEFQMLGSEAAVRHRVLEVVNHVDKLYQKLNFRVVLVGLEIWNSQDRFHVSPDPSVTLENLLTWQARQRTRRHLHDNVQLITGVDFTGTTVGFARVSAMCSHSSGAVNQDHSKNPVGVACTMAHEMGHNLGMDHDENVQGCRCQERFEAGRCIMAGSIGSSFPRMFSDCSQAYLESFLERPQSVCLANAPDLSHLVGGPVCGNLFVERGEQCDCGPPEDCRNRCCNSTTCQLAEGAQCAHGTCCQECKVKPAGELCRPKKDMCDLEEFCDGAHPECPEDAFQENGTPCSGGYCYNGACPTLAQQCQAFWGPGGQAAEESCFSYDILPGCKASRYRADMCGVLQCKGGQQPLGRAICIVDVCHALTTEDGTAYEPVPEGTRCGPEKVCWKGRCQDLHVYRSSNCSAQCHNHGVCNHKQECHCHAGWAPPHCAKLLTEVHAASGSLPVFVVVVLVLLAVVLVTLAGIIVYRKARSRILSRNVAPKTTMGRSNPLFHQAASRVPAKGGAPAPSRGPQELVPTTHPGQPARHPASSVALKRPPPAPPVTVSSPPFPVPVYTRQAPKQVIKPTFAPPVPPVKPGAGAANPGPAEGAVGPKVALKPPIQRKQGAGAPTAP", "assay": "high-throughput flow cytometry, HEK293 cells with mutant ADAM8, high stringency; range in parentheses; closed box", "protocol": "(§1) A variety of experimental parameters were optimized for high-throughput flow cytometry including blocking buffer, and primary and secondary antibody concentrations, to identify the optimal conditions for screening. Through these studies ADP2 and ADP13 were determined to be high affinity binding antibodies.\n(§2) Thus, for these studies antigen-binding fragments (Fabs) of ADP2 and ADP13, which bind with lower affinity than the full antibody, were generated. In addition, higher binding stringency conditions were tested, such as increased pH, salinity, and temperature, and/or increased washing, to weaken binding sufficiently to allow identification of critical binding residues in flow cytometry. The final experimental flow cytometry conditions were: primary antibody incubation with ADP2 Fab (0.50 μg/ml), ADP13 Fab (5.00 μg/ml) and Control Ab (0.16 μg/ml) for 60 minutes in flow cytometry buffer containing 10% goat serum in PBS (Ca²⁺ and Mg²⁺ free). […] Samples were washed three times after primary antibody incubation and twice after secondary antibody incubation with PBS (Ca²⁺ and Mg′ free). Next, HEK293 cells expressing WT or mutated ADAM8 proteins or EV DNA were incubated with ADP2 or ADP13 Fabs or Control Ab at their optimal concentrations. Fab binding was detected using Alexa Fluor 488-conjugated secondary antibodies and mean cellular fluorescence determined using the Intellicyt iQue flow cytometry platform. […] This counter-screen strategy facilitates the exclusion of mutants that are locally misfolded or that have an expression defect. Binding of each test Fab to each mutant clone in the alanine scanning library was determined, in duplicate, by high-throughput flow cytometry."}, "R482A [2]": {"biological_target": "T1, R482A", "assay": "high-throughput flow cytometry, HEK293 cells with mutant ADAM8, high stringency; range in parentheses", "protocol": "as §1, §2"}, "E444A": {"biological_target": "T2, E444A (Homo sapiens, UniProt P78325)", "T2 construct": "expressed on HEK293 cells; also called human ADAM8 point mutant E444A", "T2 sequence (ADAM8, looked up)": "T1 sequence (ADAM8, looked up) with E428A, A466R", "assay": "high-throughput flow cytometry, HEK293 cells with mutant ADAM8, high stringency; range in parentheses; closed box", "protocol": "as §1, §2"}},
  "note": "Positions count from the first letter of the chain named.",
  "data": [
    {"binder": "B1", "values": [
      {"measurement": "Binding Reactivity (% WT)", "setting": "R482A [1]", "value": 8.3, "unit": "% WT"}
    ]},
    {"binder": "B2", "values": [
      {"measurement": "Binding Reactivity (% WT)", "setting": "R482A [2]", "value": 113, "unit": "% WT"},
      {"measurement": "Binding Reactivity (% WT)", "setting": "E444A", "value": 17.6, "unit": "% WT"}
    ]}
  ]
}
